Laboratory results: the supplement of paper PMC5998384

Key:
HeLa Kyoto [1] = assay: melting temperature (median over replicates), in situ; higher = more thermally stable
HeLa Kyoto [2] = assay: solubility change mitosis vs G1/S (difference of NP-40 vs SDS log2 ratios) (log2 ratio difference); higher = more soluble in mitosis
HeLa Kyoto [3] = assay: solubility in G1/S (NP-40 vs SDS abundance) (log2 ratio); higher = more soluble; conditions: cell cycle stage: G1/S
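Wherever melting temperature (median over replicates), in situ is given: HeLa Kyoto cells synchronized by double thymidine or nocodazole block, proteins quantified by TMT10plex mass spectrometry, three independent biological replicates.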
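Wherever solubility change mitosis vs G1/S (difference of NP-40 vs SDS log2 ratios) is given: synchronized HeLa Kyoto cells (double thymidine block for G1/S, nocodazole release for mitosis), protein amounts in NP-40 versus SDS lysates quantified by mass spectrometry, three biological replicates.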
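Wherever solubility in G1/S (NP-40 vs SDS abundance) is given: HeLa Kyoto cells arrested at G1/S by double thymidine block, proteins quantified by TMT10plex mass spectrometry in mild NP-40 versus SDS extracts, three biological replicates.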

Sequence | melting temperature (HeLa Kyoto [1]; cell cycle stage: G1/S) | melting temperature (HeLa Kyoto [1]; cell cycle stage: mitosis) | solubility change mitosis (log2) (HeLa Kyoto [2]) | solubility in G1/S (log2) (HeLa Kyoto [3])
MLFKLLQRQTYTCLSHRYGLYVCFLGVVVTIVSAFQFGEVVLEWSRDQYHVLFDSYRDNIAGKSFQNRLCLPMPIDVVYTWVNGTDLELLKELQQVREQMEEEQKAMREILGKNTTEPTKKSEKQLECLLTHCIKVPMLVLDPALPANITLKDLPSLYPSFHSASDIFNVAKPKNPSTNVSVVVFDSTKDVEDAHSGLLKGNSRQTVWRGYLTTDKEVPGLVLMQDLAFLSGFPPTFKETNQLKTKLPENLSSKVKLLQLYSEASVALLKLNNPKDFQELNKQTKKNMTIDGKELTISPAYLLWDLSAISQSKQDEDISASRFEDNEELRYSLRSIERHAPWVRNIFIVTNGQIPSWLNLDNPRVTIVTHQDVFRNLSHLPTFSSPAIESHIHRIEGLSQKFIYLNDDVMFGKDVWPDDFYSHSKGQKVYLTWPVPNCAEGCPGSWIKDGYCDKACNNSACDWDGGDCSGNSGGSRYIAGGGGTGSIGVGQPWQFGGGINSVSYCNQGCANSWLADKFCDQACNVLSCGFDAGDCGQDHFHELYKVILLPNQTHYIIPKGECLPYFSFAEVAKRGVEGAYSDNPIIRHASIANKWKTIHLIMHSGMNATTIHFNLTFQNTNDEEFKMQITVEVDTREGPKLNSTAQKGYENLVSPITLLPEAEILFEDIPKEKRFPKFKRHDVNSTRRAQEEVKIPLVNISLLPKDAQLSLNTLDLQLEHGDITLKGYNLSKSALLRSFLMNSQHAKIKNQAIITDETNDSLVAPQEKQVHKSILPNSLGVSERLQRLTFPAVSVKVNGHDQGQNPPLDLETTARFRVETHTQKTIGGNVTKEKPPSLIVPLESQMTKEKKITGKEKENSRMEENAENHIGVTEVLLGRKLQHYTDSYLGFLPWEKKKYFQDLLDEEESLKTQLAYFTDSKNTGRQLKDTFADSLRYVNKILNSKFGFTSRKVPAHMPHMIDRIVMQELQDMFPEEFDKTSFHKVRHSEDMQFAFSYFYYLMSAVQPLNISQVFDEVDTDQSGVLSDREIRTLATRIHELPLSLQDLTGLEHMLINCSKMLPADITQLNNIPPTQESYYDPNLPPVTKSLVTNCKPVTDKIHKAYKDKNKYRFEIMGEEEIAFKMIRTNVSHVVGQLDDIRKNPRKFVCLNDNIDHNHKDAQTVKAVLRDFYESMFPIPSQFELPREYRNRFLHMHELQEWRAYRDKLKFWTHCVLATLIMFTIFSFFAEQLIALKRKIFPRRRIHKEASPNRIRV [GNPTAB] | 53.9 °C | 54.1 °C | -0.00222 | 0.263
MLGLCGQRLPAAWVLLLLPFLPLLLLAAPAPHRASYKPVIVVHGLFDSSYSFRHLLEYINETHPGTVVTVLDLFDGRESLRPLWEQVQGFREAVVPIMAKAPQGVHLICYSQGGLVCRALLSVMDDHNVDSFISLSSPQMGQYGDTDYLKWLFPTSMRSNLYRICYSPWGQEFSICNYWHDPHHDDLYLNASSFLALINGERDHPNATVWRKNFLRVGHLVLIGGPDDGVITPWQSSFFGFYDANETVLEMEEQLVYLRDSFGLKTLLARGAIVRCPMAGISHTAWHSNRTLYETCIEPWLS [PPT2] | 56.4 °C | 55.9 °C | -0.131 | 0.733
MMGCFALQTVDTELTADSVEWCPLQGCRHLLACGTYQLRRPEDRPAGPQNKGGMEVKEPQVRLGRLFLYSFNDNNSIHPLVEVQRKDTSAILDMKWCHIPVAGHALLGLADASGSIQLLRLVESEKSHVLEPLSSLALEEQCLALSLDWSTGKTGRAGDQPLKIISSDSTGQLHLLMVNETRPRLQKVASWQAHQFEAWIAAFNYWHPEIVYSGGDDGLLRGWDTRVPGKFLFTSKRHTMGVCSIQSSPHREHILATGSYDEHILLWDTRNMKQPLADTPVQGGVWRIKWHPFHHHLLLAACMHSGFKILNCQKAMEERQEATVLTSHTLPDSLVYGADWSWLLFRSLQRAPSWSFPSNLGTKTADLKGASELPTPCHECREDNDGEGHARPQSGMKPLTEGMRKNGTWLQATAATTRDCGVNPEEADSAFSLLATCSFYDHALHLWEWEGN [DPH7] |  | 57.1 °C | -0.0679 | -0.0249
MMWQKYAGSRRSMPLGARILFHGVFYAGGFAIVYYLIQKFHSRALYYKLAVEQLQSHPEAQEALGPPLNIHYLKLIDRENFVDIVDAKLKIPVSGSKSEGLLYVHSSRGGPFQRWHLDEVFLELKDGQQIPVFKLSGENGDEVKKE [COA1] | 54.7 °C | 55.7 °C | 0.0489 | 0.0268
MNRPAPVEISYENMRFLITHNPTNATLNKFTEELKKYGVTTLVRVCDATYDKAPVEKEGIHVLDWPFDDGAPPPNQIVDDWLNLLKTKFREEPGCCVAVHCVAGLGRAPVLVALALIECGMKYEDAVQFIRQKRRGAFNSKQLLYLEKYRPKMRLRFRDTNGHCCVQ [PTP4A2] | 53.7 °C | 54.1 °C | -0.087 | -0.226
MPAFLGLKCLGKLCSSEKSKVTSSERTSARGSNRKRLIVEDRRVSGTSFTAHRRATITHLLYLCPKDYCPRGRVCNSVDPFVAHPQDPHHPSEKPVIHCHKCGEPCKGEVLRVQTKHFHIKCFTCKVCGCDLAQGGFFIKNGEYLCTLDYQRMYGTRCHGCGEFVEGEVVTALGKTYHPNCFACTICKRPFPPGDRVTFNGRDCLCQLCAQPMSSSPKETTFSSNCAGCGRDIKNGQALLALDKQWHLGCFKCKSCGKVLTGEYISKDGAPYCEKDYQGLFGVKCEACHQFITGKVLEAGDKHYHPSCARCSRCNQMFTEGEEMYLQGSTVWHPDCKQSTKTEEKLRPTRTSSESIYSRPGSSIPGSPGHTIYAKVDNEILDYKDLAAIPKVKAIYDIERPDLITYEPFYTSGYDDKQERQSLGESPRTLSPTPSAEGYQDVRDRMIHRSTSQGSINSPVYSRHSYTPTTSRSPQHFHRPGNEPSSGRNSPLPYRPDSRPLTPTYAQAPKHFHVPDQGINIYRKPPIYKQHAALAAQSKSSEDIIKFSKFPAAQAPDPSETPKIETDHWPGPPSFAVVGPDMKRRSSGREEDDEELLRRRQLQEEQLMKLNSGLGQLILKEEMEKESRERSSLLASRYDSPINSASHIPSSKTASLPGYGRNGLHRPVSTDFAQYNSYGDVSGGVRDYQTLPDGHMPAMRMDRGVSMPNMLEPKIFPYEMLMVTNRGRNKILREVDRTRLERHLAPEVFREIFGMSIQEFDRLPLWRRNDMKKKAKLF [ABLIM1] | 46.2 °C | 51.7 °C | 0.599 | -0.8
MPIVDKLKEALKPGRKDSADDGELGKLLASSAKKVLLQKIEFEPASKSFSYQLEALKSKYVLLNPKTEGASRHKSGDDPPARRQGSEHTYESCGDGVPAPQKVLFPTERLSLRWERVFRVGAGLHNLGNTCFLNATIQCLTYTPPLANYLLSKEHARSCHQGSFCMLCVMQNHIVQAFANSGNAIKPVSFIRDLKKIARHFRFGNQEDAHEFLRYTIDAMQKACLNGCAKLDRQTQATTLVHQIFGGYLRSRVKCSVCKSVSDTYDPYLDVALEIRQAANIVRALELFVKADVLSGENAYMCAKCKKKVPASKRFTIHRTSNVLTLSLKRFANFSGGKITKDVGYPEFLNIRPYMSQNNGDPVMYGLYAVLVHSGYSCHAGHYYCYVKASNGQWYQMNDSLVHSSNVKVVLNQQAYVLFYLRIPGSKKSPEGLISRTGSSSLPGRPSVIPDHSKKNIGNGIISSPLTGKRQDSGTMKKPHTTEEIGVPISRNGSTLGLKSQNGCIPPKLPSGSPSPKLSQTPTHMPTILDDPGKKVKKPAPPQHFSPRTAQGLPGTSNSNSSRSGSQRQGSWDSRDVVLSTSPKLLATATANGHGLKGNDESAGLDRRGSSSSSPEHSASSDSTKAPQTPRSGAAHLCDSQETNCSTAGHSKTPPSGADSKTVKLKSPVLSNTTTEPASTMSPPPAKKLALSAKKASTLWRATGNDLRPPPPSPSSDLTHPMKTSHPVVASTWPVHRARAVSPAPQSSSRLQPPFSPHPTLLSSTPKPPGTSEPRSCSSISTALPQVNEDLVSLPHQLPEASEPPQSPSEKRKKTFVGEPQRLGSETRLPQHIREATAAPHGKRKRKKKKRPEDTAASALQEGQTQRQPGSPMYRREGQAQLPAVRRQEDGTQPQVNGQQVGCVTDGHHASSRKRRRKGAEGLGEEGGLHQDPLRHSCSPMGDGDPEAMEESPRKKKKKKRKQETQRAVEEDGHLKCPRSAKPQDAVVPESSSCAPSANGWCPGDRMGLSQAPPVSWNGERESDVVQELLKYSSDKAYGRKVLTWDGKMSAVSQDAIEDSRQARTETVVDDWDEEFDRGKEKKIKKFKREKRRNFNAFQKLQTRRNFWSVTHPAKAASLSYRR [USP36] | 52.3 °C | 52.2 °C | 0.946 | -1.41
MPKTMHFLFRFIVFFYLWGLFTAQRQKKEESTEEVKIEVLHRPENCSKTSKKGDLLNAHYDGYLAKDGSKFYCSRTQNEGHPKWFVLGVGQVIKGLDIAMTDMCPGEKRKVVIPPSFAYGKEGYAEGKIPPDATLIFEIELYAVTKGPRSIETFKQIDMDNDRQLSKAEINLYLQREFEKDEKPRDKSYQDAVLEDIFKKNDHDGDGFISPKEYNVYQHDEL [FKBP7] | 55 °C | 55.8 °C | 0.0889 | 0.654
MPVTVTRTTITTTTTSSSGLGSPMIVGSPRALTQPLGLLRLLQLVSTCVAFSLVASVGAWTGSMGNWSMFTWCFCFSVTLIILIVELCGLQARFPLSWRNFPITFACYAALFCLSASIIYPTTYVQFLSHGRSRDHAIAATFFSCIACVAYATEVAWTRARPGEITGYMATVPGLLKVLETFVACIIFAFISDPNLYQHQPALEWCVAVYAICFILAAIAILLNLGECTNVLPIPFPSFLSGLALLSVLLYATALVLWPLYQFDEKYGGQPRRSRDVSCSRSHAYYVCAWDRRLAVAILTAINLLAYVADLVHSAHLVFVKV [MYADM] | 52.9 °C | 53 °C | -0.0179 | -0.352
MQAALEVTARYCGRELEQYGQCVAAKPESWQRDCHYLKMSIAQCTSSHPIIRQIRQACAQPFEAFEECLRQNEAAVGNCAEHMRRFLQCAEQVQPPRSPATVEAQPLPAS [CHCHD5] | 53.5 °C | 50.5 °C | 0.0671 | -0.11
MQSPAVLVTSRRLQNAHTGLDLTVPQHQEVRGKMMSGHVEYQILVVTRLAAFKSAKHRPEDVVQFLVSKKYSEIEEFYQKLSSRYAAASLPPLPRKVLFVGESDIRERRAVFNEILRCVSKDAELAGSPELLEFLGTRSPGAAGLTSRDSSVLDGTDSQTGNDEEAFDFFEEQDQVAEEGPPVQSLKGEDAEESLEEEEALDPLGIMRSKKPKKHPKVAVKAKPSPRLTIFDEEVDPDEGLFGPGRKLSPQDPSEDVSSVDPLKLFDDPDLGGAIPLGDSLLLPAACESGGPTPSLSHRDASKELFRVEEDLDQILNLGAEPKPKPQLKPKPPVAAKPVIPRKPAVPPKAGPAEAVAGQQKPQEQIQAMDEMDILQYIQDHDTPAQAAPSLF [HS1BP3] | 49.7 °C | 50.5 °C | 0.119 | 0.292
MRASLLLSVLRPAGPVAVGISLGFTLSLLSVTWVEEPCGPGPPQPGDSELPPRGNTNAARRPNSVQPGAEREKPGAGEGAGENWEPRVLPYHPAQPGQAAKKAVRTRYISTELGIRQRLLVAVLTSQTTLPTLGVAVNRTLGHRLERVVFLTGARGRRAPPGMAVVTLGEERPIGHLHLALRHLLEQHGDDFDWFFLVPDTTYTEAHGLARLTGHLSLASAAHLYLGRPQDFIGGEPTPGRYCHGGFGVLLSRMLLQQLRPHLEGCRNDIVSARPDEWLGRCILDATGVGCTGDHEGVHYSHLELSPGEPVQEGDPHFRSALTAHPVRDPVHMYQLHKAFARAELERTYQEIQELQWEIQNTSHLAVDGDQAAAWPVGIPAPSRPASRFEVLRWDYFTEQHAFSCADGSPRCPLRGADRADVADVLGTALEELNRRYHPALRLQKQQLVNGYRRFDPARGMEYTLDLQLEALTPQGGRRPLTRRVQLLRPLSRVEILPVPYVTEASRLTVLLPLAAAERDLAPGFLEAFATAALEPGDAAAALTLLLLYEPRQAQRVAHADVFAPVKAHVAELERRFPGARVPWLSVQTAAPSPLRLMDLLSKKHPLDTLFLLAGPDTVLTPDFLNRCRMHAISGWQAFFPMHFQAFHPAVAPPQGPGPPELGRDTGRFDRQAASEACFYNSDYVAARGRLAAASEQEEELLESLDVYELFLHFSSLHVLRAVEPALLQRYRAQTCSARLSEDLYHRCLQSVLEGLGSRTQLAMLLFEQEQGNST [CHPF] | 53.4 °C | 52 °C | 0.15 | -0.013
